This note sets out measurements from patent US20240076391A1 (ONCURIOUS, published 2024).

Assay [1] has as its target T1, human CCR8 (human, UniProt P51685 1-355).
T1 construct: also called hCCR8
Kind of assay: competition with VHH-65 for CCR8 binding.

Assay [2] addresses T1, human CCR8. Kind of assay: flow cytometry competition with FLAG3-His6 tagged parental VHH-74 on hCCR8 cells. From the text: (§1) Multiple His6 tagged VHH variants were thus generated and evaluated by flow cytometry f for their ability to compete for binding to hCCR8 with their FLAG3-His6 tagged parental counterparts. […] Variants that retained binding capacity where selected for further biophysical and chemical stability analysis.
For orientation: In flow cytometry, cells or beads pass a laser one at a time.

For assay [3], the target named is T1, human CCR8. Kind of assay: flow cytometry, human CCR8 stably expressed in HEK293 cells.
In assay [4] the target is T2, N-terminal deletion human CCR8 (delta 18-3XHA) (human, UniProt P51685 20-355).
T2 construct: N-terminally deleted construct with 3XHA, expressed on transfected HEK293 cells
T2 sequence (P51685 other isoform, or with tags, fused parts or gaps mutant): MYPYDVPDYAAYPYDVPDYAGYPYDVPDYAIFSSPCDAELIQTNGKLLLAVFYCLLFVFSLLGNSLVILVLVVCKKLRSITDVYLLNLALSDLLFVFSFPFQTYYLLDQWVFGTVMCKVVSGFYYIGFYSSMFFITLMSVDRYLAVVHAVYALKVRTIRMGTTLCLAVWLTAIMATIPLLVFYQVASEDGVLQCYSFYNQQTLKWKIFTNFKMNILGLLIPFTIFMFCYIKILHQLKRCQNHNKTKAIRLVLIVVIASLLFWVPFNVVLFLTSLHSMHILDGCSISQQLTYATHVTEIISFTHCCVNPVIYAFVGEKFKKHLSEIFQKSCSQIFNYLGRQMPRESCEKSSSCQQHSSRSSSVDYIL
The assay can be described thus: flow cytometry; an extracellular loop binder is defined in paragraph 224 as binding on hCCR8 cells and on human CCR8 (delta18-3XHA). From the text: VHH clones resulting from the human CCR8 immunization and selection campaign were screened by means of flow cytometry for binding to human CCR8 (SEQ ID NO: 79) on stably transfected HEK293 cells or to HEK293 cells previously transfected with plasmid DNA encoding three different versions of human-mouse chimera CCR8 in which one of the extracellular loops (ECLs) was replaced with the mouse CCR8 counterpart, as well as to an N-terminal deletion human CCR8 (SEQ ID NO: 80, delta 18-3XHA herein after), in comparison to mock-transfected control cells. Comparison of the binding (median fluorescent intensity) signal of a given VHH clone across the seven cell lines enabled classification of said clone as an N-terminal human CCR8 binder (i.e. binding on hCCR8 cells, but not on human CCR8 (delta18-3XHA) or control cells) or as an extracellular loop hCCR8 binder (i.e. binding on hCCR8 cells and on human CCR8 (delta18-3XHA), but not on control cells). Binding comparison across the cell lines expressing human-mouse chimera CCR8 allowed to further classify extracellular hCCR8 binders as either ECL1, ECL2 or ECL3 binders.

The target in assay [5] is T1, human CCR8. The assay can be described thus: flow cytometry competition with FLAG3-His6 tagged parental VHH-65 on hCCR8 cells.
Source text: as §1

The target in assay [6] is T1, human CCR8. The assay can be described thus: flow cytometry competition with FLAG3-His6 tagged parental VHH-56 on hCCR8 cells.
Source text: as §1

T1 sequence (P51685 whole entry): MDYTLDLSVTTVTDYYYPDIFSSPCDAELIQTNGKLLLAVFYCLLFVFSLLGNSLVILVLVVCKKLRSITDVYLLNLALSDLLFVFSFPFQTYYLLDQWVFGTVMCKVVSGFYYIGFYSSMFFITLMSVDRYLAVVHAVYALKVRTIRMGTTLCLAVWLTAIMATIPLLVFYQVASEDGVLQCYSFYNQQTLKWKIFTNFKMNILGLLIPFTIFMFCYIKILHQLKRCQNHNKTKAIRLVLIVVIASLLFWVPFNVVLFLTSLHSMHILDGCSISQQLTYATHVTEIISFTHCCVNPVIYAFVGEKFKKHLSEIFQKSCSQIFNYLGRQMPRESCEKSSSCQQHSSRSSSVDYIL

B1: VHH-74 (VHH)
VHH: EVQLVESGGGLVQPGGSLRLSCAASGSTFSIKSIGWYRQAPGKQRELVADITRGAGINYADSVKGRFTISRDNTKNTMYLQMNSLRPEDTAVYYCNVKTIKRTGGIMTGSKIEYDYWGQGTLVTVSS
notes: Monovalent VHH purified from E. coli periplasm by IMAC; not shown: C-terminal FLAG3 and His6 tags
For B1, the binding result in assay [1] is “binds”.

B2: VHH-125 (VHH)
VHH: DVQLVESGGGLVQPGGSLRLSCAASGSTFSIKSIGWYRQAPGKQRELVADITRGAGINYADSVKGRFTISRDNAKNTVYLQMNSLRPEDTAVYYCNVKTIKRTGGILTGSKIEYDYWGQGTLVTVSS
notes: also called VHH-74 E1D, T74A, M78V, M107L; not shown: C-terminal His6 tag (no FLAG3)
Consider B2, for which the binding result in assay [2] is recorded as “binds”.

B3: VHH-65 (VHH)
VHH: EVQLVESGGGLVQPGGSLRLSCAASGRAFSSYNMGWFRQAPGKERDFVATISSSGTNYANSVKGRFTISRDNAKNTVYLQMNSLRPEDTAVYYCNAKTVTRTGGVITGSRIEYDYWGQGTLVTVSS
notes: as for B1
B3: the binding result in assay [3] and in assay [4] was “binds” each time.

B4: VHH-89 (VHH)
VHH: DVQLVESGGGLVQPGGSLRLSCAASGRAFSSYNMGWFRQAPGKEREFVATISSSGTNYADSVKGRFTISRDNAKNTVYLQMNSLRPEDTAVYYCNAKTVTRTGGVITGSRIEYDYWGQGTLVTVSS
notes: also called VHH-65 E1D, D46E, N60D; not shown: C-terminal His6 tag (no FLAG3)
Turning to B4, in assay [5], the binding result was “binds”.

B5: VHH-114 (VHH)
VHH: DVQLVESGGGLVQPGGSLRLSCAASRSIYNVLAMGWYRQAPGKERELVAVVWSSGNTNYADSVKGRFTISRDNAKNTVYLQMNSLRPEDTAVYYCYSKSLIGTSRYEIWGQGTLVTVSS
notes: 'V691' is printed, probably V69I; also called VHH-56 E1D, M32L, V691; not shown: C-terminal His6 tag (no FLAG3)
Turning to B5, in assay [6], the binding result is recorded as “binds”.

B6: VHH-56 (VHH)
VHH: EVQLVESGGGLVQPGGSLRLSCAASRSIYNVMAMGWYRQAPGKERELVAVVWSSGNTNYADSVKGRFTVSRDNAKNTVYLQMNSLRPEDTAVYYCYSKSLIGTSRYEIWGQGTLVTVSS
notes: Monovalent VHH purified from E. coli periplasm by IMAC; PelB signal peptide is removed on export; not shown: C-terminal FLAG3 and His6 tags
In the case of B6, the binding result in assay [3] and in assay [4] was “binds” each time.

B7: VHH-115 (VHH)
VHH: DVQLVESGGGLVQPGGSLRLSCAASRSIYNVRAMGWYRQAPGKERELVAVVWSSGNTNYADSVKGRFTISRDNAKNTVYLQMNSLRPEDTAVYYCYSKSLIGTSRYEIWGQGTLVTVSS
notes: 'V691' is printed, probably V69I; also called VHH-56 E1D, M32R, V691; not shown: C-terminal His6 tag (no FLAG3)
Regarding B7, in assay [6], the binding result was “binds”.
